T1: human IL-17RC (IL-17RCx1), full length on transfected cells (human, UniProt Q8NAC3 21-791)
T1 construct: Expressed on BHK, 293T or nih3t3/kz142.8 cells; also called hIL-17RC; hIL-17RCX1
T1 sequence: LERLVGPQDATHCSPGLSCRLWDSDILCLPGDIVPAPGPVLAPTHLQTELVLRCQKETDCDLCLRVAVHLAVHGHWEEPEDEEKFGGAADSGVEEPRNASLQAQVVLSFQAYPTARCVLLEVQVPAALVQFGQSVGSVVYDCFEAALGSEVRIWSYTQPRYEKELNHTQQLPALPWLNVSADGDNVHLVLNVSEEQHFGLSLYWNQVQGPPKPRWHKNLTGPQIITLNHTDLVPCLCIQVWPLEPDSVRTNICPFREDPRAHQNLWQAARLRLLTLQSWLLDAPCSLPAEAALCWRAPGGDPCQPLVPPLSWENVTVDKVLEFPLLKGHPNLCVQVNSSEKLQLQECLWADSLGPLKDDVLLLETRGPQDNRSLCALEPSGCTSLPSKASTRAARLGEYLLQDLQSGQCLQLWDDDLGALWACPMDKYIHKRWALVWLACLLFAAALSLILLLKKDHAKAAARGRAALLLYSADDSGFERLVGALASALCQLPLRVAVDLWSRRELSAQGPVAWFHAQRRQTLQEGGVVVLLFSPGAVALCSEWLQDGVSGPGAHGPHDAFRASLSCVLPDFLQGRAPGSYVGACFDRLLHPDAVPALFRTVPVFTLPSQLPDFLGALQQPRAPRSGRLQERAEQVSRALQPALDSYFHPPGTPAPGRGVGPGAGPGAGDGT

T2: human IL-17 receptor (IL-17R), on transfected cells (human, UniProt Q96F46 33-320)
T2 sequence: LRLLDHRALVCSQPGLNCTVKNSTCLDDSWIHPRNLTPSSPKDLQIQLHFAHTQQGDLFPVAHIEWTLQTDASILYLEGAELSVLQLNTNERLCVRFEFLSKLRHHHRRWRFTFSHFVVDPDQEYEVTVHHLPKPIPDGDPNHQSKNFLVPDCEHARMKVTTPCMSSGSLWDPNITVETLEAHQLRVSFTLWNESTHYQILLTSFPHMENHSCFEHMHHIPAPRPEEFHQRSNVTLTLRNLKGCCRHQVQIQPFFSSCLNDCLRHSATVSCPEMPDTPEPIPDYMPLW

T3: mouse IL-17RCx1, on transfected cells (mouse, UniProt Q8K4C2 22-698)
T3 construct: also called murine IL-17RCx1; IL-17RCx1 (mouse)
T3 sequence: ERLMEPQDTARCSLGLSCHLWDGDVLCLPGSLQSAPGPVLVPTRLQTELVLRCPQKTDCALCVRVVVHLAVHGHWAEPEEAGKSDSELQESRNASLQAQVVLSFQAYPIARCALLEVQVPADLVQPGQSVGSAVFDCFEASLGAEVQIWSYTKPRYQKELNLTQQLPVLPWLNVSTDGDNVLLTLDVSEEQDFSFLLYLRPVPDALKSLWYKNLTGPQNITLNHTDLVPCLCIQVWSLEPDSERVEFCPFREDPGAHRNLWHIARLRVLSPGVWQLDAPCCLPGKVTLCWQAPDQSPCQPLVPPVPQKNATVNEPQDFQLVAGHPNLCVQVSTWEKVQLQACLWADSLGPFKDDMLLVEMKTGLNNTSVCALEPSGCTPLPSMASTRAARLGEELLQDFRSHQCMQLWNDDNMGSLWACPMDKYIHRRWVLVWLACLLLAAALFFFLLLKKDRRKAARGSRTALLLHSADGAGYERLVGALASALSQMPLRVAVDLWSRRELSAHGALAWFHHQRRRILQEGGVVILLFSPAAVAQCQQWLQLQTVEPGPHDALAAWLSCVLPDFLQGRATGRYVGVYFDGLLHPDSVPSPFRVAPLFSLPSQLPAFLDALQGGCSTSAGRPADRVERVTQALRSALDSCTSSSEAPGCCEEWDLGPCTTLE

T4: human IL-17RCx4, on transfected 293T cells (human, UniProt Q8NAC3 21-791)
T4 construct: Splice variant that includes exons 7, 8 and 12
T4 sequence: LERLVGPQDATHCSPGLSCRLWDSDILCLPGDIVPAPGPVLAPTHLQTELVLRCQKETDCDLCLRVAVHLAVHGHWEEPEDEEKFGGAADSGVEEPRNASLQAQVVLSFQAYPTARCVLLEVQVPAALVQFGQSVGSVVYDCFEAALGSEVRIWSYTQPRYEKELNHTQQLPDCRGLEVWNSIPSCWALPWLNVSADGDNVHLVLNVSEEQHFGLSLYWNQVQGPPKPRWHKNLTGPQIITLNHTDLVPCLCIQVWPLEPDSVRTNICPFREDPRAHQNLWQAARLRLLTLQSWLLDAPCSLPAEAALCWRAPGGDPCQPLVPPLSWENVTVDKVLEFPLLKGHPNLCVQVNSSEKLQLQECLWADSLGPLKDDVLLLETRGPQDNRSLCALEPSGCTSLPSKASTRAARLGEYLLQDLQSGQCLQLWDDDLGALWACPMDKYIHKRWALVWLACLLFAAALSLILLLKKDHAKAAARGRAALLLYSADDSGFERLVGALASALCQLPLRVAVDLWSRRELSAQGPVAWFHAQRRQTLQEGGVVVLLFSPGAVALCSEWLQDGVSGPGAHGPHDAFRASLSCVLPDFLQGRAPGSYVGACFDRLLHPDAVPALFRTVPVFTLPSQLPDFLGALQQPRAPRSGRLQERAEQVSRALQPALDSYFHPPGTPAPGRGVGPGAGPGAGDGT


Experiments:
[1] = target: T1, human IL-17RC (IL-17RCx1), full length …; assay: saturation radioligand binding on BHK hIL-17RC cells, experiment 3; high affinity site of two-site fit
Protocol: (§1) Cold competitors were added in 100 fold molar excess. […] Wells were incubated on ice for 1-hour followed by two washes with PBS (Invitrogen 20012-027) and one wash with a high salt solution (1.5M NaCL, 50 mM HEPES pH 7.4). Wells were extracted with 500 ul of 0.8M NaOH for 30 min. at room temperature and counts per minute were measured in a gamma counter (Packard Cobra II A5005).
(§2) Transfected BHK cells were plated into 24-well dishes as in one. […] Separately, 100 fold molar excess of cold ligand was added at each dilution point. Cells were washed, extracted and counted as in one. Specific counts per minute were plotted against concentration of radiolabeled ligand added by subtracting the 100 fold excess counts from the uncompleted counts at each dilution point. These normalized data were plotted to generate saturation binding curves for each combination of radiolabeled ligand and transfected BHK cells.

[2] = target: T2, human IL-17 receptor (IL-17R), on …; assay: cell-based or functional assay
[3] = target: T1, human IL-17RC (IL-17RCx1), full length …; assay: cell-based or functional assay
[4] = target: T1, human IL-17RC (IL-17RCx1), full length …; assay: saturation radioligand binding on BHK hIL-17RC cells, experiment 1; high affinity site of two-site fit
Protocol: as §1, §2

[5] = target: T3, mouse IL-17RCx1, on transfected cells; assay: FACS, biotinylated cytokine on transfected cells; (+) = significant increase in fluorescence
[6] = target: T1, human IL-17RC (IL-17RCx1), full length …; assay: saturation radioligand binding on BHK hIL-17RC cells, experiment 2; high affinity site of two-site fit
Protocol: as §1, §2

[7] = target: T1, human IL-17RC (IL-17RCx1), full length …; assay: radioligand competition, 100x molar cold competitor, BHK hIL-17RC cells
Protocol: as §1

[8] = target: T1, human IL-17RC (IL-17RCx1), full length …; assay: FACS, biotinylated cytokine on transiently transfected 293T cells; (-) = no significant change in fluorescence
Description: (§3) Those chosen for this analysis also differed in their inclusion or exclusion of exon 7 and exon 12. These variants were designated human IL-17RCx1, IL-17RCx4, IL-17RCx2, and IL-17RCx7 and these are also illustrated in Table 6 below.

[9] = target: T3, mouse IL-17RCx1, on transfected cells; assay: FACS, biotinylated cytokine on transfected cells; (-) = no significant change in fluorescence
[10] = target: T4, human IL-17RCx4, on transfected 293T …; assay: FACS, biotinylated cytokine on transiently transfected 293T cells; (+) = significant increase in fluorescence
[11] = target: T4, human IL-17RCx4, on transfected 293T …; assay: FACS, biotinylated cytokine on transiently transfected 293T cells; (-) = no significant change in fluorescence
Description: as §3

| Binder | Kd [1] | EC50, ap1/nfkb luciferase in hIL-17RA recombinant line [2] | EC50, ap1/nfkb luciferase in hIL-17RCX1 recombinant line [3] | fold more potent EC50 in the recombinant line vs the parental line [3] | Kd [4] | binding result [5] | Kd [6] | fold reduction of 125I IL-17A binding [7] | fold reduction of 125I IL-17F binding [7] | binding result [8] | binding result [9] | binding result [10] | binding result [11] | EC50, ap1/nfkb luciferase in nih3t3/kz142.8/hcytor14x1 pool [3] |
| --- | --- | --- | --- | --- | --- | --- | --- | --- | --- | --- | --- | --- | --- | --- |
| human IL-17F (ligand, biotinylated (flow cytometry) or 125I-radiolabeled by the iodobead method (radioligand assays); unlabeled as cold competitor; expressed from cDNA in COS cells in the secretion trap, also called huIL-17F; hIL-17F) RKIPKVGHTFFQKPESCPPVPGGSMKLDIGIINENQRVSMSRNIESRSTSPWNYTVTWDPNRYPSEVVQAQCRNLGCINAQGKEDISMNSVPIQQETLVVRRKHQGCSVSFQLEKVLVTVGCTCVTPVIHHVQ | 0.08 nM | 12.4 ng/mL | 0.61 ng/mL | 17 fold | 0.05 nM | binds | 0.06 nM | ~7 fold | ~5 fold | – | – | – | – | – |
| mouse IL-17F (ligand, biotinylated in Example 31, also called murine IL-17F; MuIL-17F) RKNPKAGVPALQKAGNCPPLEDNTVRVDIRIFNQNQGISVPREFQNRSSSPWDYNITRDPHRFPSEIAEAQCRHSGCINAQGQEDSTMNSVAIQQEILVLRREPQGCSNSFRLEKMLLKVGCTCVKPIVHQAA | – | – | – | – | – | – | – | – | – | no binding | no binding | binds | – | – |
| mouse IL-17A (ligand, biotinylated in Example 31, also called murine IL-17A; mIL-17A) AAIIPQSSACPNTEAKDFLQNVKVNLKVFNSLGAKVSSRRPSDYLNRSTSPWTLHRNEDPDRYPSVIWEAQCRHQRCVNAEGKLDHHMNSVLIQQEILVLKREPESCPFTFRVEKMLVGVGCTCVASIVRQAA | – | – | – | – | – | – | – | – | – | no binding | no binding | – | no binding | ~4 ng/mL |

Source: US20070196371A1 (ZymoGenetics, published 2007)
